Measured values from US20020031818A1, “Modification of Mdm2 activity” (priority 2000, published 2002).

Key:
[1] = system: Mdm2; test: In vivo ubiquitination of Mdm2 in EJ cells (HA-Ub, Mdm2 immunoprecipitation); format: cell-based, mouse; conditions: forced expression in EJ p19 null cells
Excerpt: (§1) FIG. 14A-14E. A. In vitro ubiquitination of Mdm2 is inhibited by p19^ARF. GST-Mdm2 was subjected to an in vitro ubiquitination reaction using purified forms of E1, E2 and Ub-HA in the presence of ATP. Addition of bacculovirus-purified p19^ARF at the indicated concentrations blocked Mdm2 ubiquitination. Glutathione bead-coupled GST-Mdm2 in its ubiquitinated or non-ubiquitinated forms was washed and analyzed on immunoblots using antibodies to HA (upper panel). Middle panel depicts the level of Mdm2 expression and the lower panel, the level of p19^ARF added to the reaction. B. p19^ARF expression increases Mdm2 self-ubiquitination in EJ cells. EJ cells were transfected with the indicated plasmids. Cells were harvested 36 h later and proteins ([…]) were immunoprecipitated using Mdm2 antibodies (2A10). Immunoprecipitated material was washed and proteins loaded onto 10% SDS-PAGE, followed by immunoblot analysis with HA-antibodies to detect covalent HA-ubiquitin conjugation to Mdm2 (upper panel). Middle panel depicts level of immunoprecipitated Mdm2. Lower panel represents western analysis of p19^ARF expression levels. C. In vitro ubiquitination of Mdm2 in the presence of p19^ARF and protein extracts. […] The level of p53 immunoprecipitated was monitored in immunoblots using polyclonal antibodies to p53 (middle). […]

[2] = system: p53 transcriptional activity; test: p21-luc luciferase reporter assay in EJ cells; format: cell-based, mouse; conditions: EJ cells transfected with p53, p19ARF and p21 promoter luciferase construct
Excerpt: as §1, with “(2A10).” for “(2A10). Immunoprecipitated material was washed and proteins loaded onto 10% SDS-PAGE, followed by immunoblot analysis with HA-antibodies to detect covalent HA-ubiquitin conjugation to Mdm2 (upper panel). Middle panel depicts level of immunoprecipitated Mdm2. Lower panel represents western analysis of p19^ARF expression levels. C. In vitro ubiquitination of Mdm2 in the presence of p19^ARF and protein extracts.”
Non-denaturing immunoprecipitation and luciferase assay p53/Mdm2 double null cells (Fuch et al., Oncogene 17:2543-2547, 1998), EJ, NIH3T3 mouse fibroblasts and TIG human fibroblasts were maintained in DMEM (Gibco) supplemented with 10% heat-inactivated fetal bovine serum and antibiotics in 5% CO2 Transfections were performed by lipofection (LipofectaminPlus, GIBCO). […] Luciferase activity was determined using the Promega luciferase assay system (Promega, Madison, Wis.). […]

B1: p19^ARF: Mdm2-regulating protein; in vitro translated, bacculovirus-expressed or transfected (protein)
chain: MGRRFLVTVRIQRAGRPLQERVFLVKFVRSRRPRTASCALAFVNMLLRLERILRRGPHRNPGPGDDDGQRSRSSSSAQLRCRFELRGPHYLLPPGARRSAGRLPGHAGGAARVRGSAGCARCLGSPAARLGPRAGTSRHRAIFAFRWVLFVFRWVVFVYRWERRPDRRA
[1]
  degree of Mdm2 ubiquitination in vivo: noticeable increase in the degree of Mdm2 ubiquitination
[2]
  p53 transcriptional activity (p21-luc): corresponding increase
